Reference: the supplement of paper PMC7877785
± gives the uncertainty stated by the source.

Experiment: self-splicing fitness, log relative to wild type (ln ratio); higher = more splicing; Tetrahymena group I intron in knt gene, E. coli kanamycin selection, DiMSum; sequences stand for … in CUCUCU…GGAGGGAAAAGUUAUCAGGCAUGCACCUGGUAGCUAGUCUUUAAACCAAUAGAUUGCAUCGGUUUAAAAGGCAAGACCGUCAAAUUGCGGGAAAGGGGUCAACAGCCGUUCAGUACCAAGUCUCAGGGGAAACUUUGAGAUGGCCUUGCAAAGGGUAUGGUAAUAAGCUGACGGACAUGGUCCUAACCACGCAGCCAAGUCCUAAGUCAACAGAUCUUCUGUUGAUAUGGAUGCAGUUCACAGACUAAAUGUCGGUCGGGGAAGAUGUAUUCUUCUCAUAAGAUAUAGUCGGACCUCUCCUUAAUGGGAGCUAGCGGAUGAAGUGAUGCAACACUGGAGCCGCUGGGAACUAAUUUGUAUGCGAAAGUAUAUUGAUUAGUUUUGGAGUACUCGUGGUCG
Outline: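 DiMSum derived fitness as the error-weighted combination of fold changes across replicates, kanamycin versus no kanamycin, normalised to wild type. E. coli BL21(DE3) held the library, which randomised all eight P1ex-region intron nucleotides within the knt kanamycin-resistance gene on pET-22b(+). Six replicate transformations grew overnight at 37°C or 30°C on LB agar with or without 25 μg/mL kanamycin, also containing 100 μg/mL carbenicillin, 50 μM IPTG and 0.2% rhamnose, and pooled colonies were amplicon-sequenced on an Illumina HiSeq 2500.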

Sequence | self-splicing fitness (ln) (30 °C) | self-splicing fitness (ln) (37 °C)
UCUAAGCAAUAUUACGUGCC | -4.37 ± 0.39 | 
CGUAAGCAAUAUUACGGAAU | -3.8 ± 0.43 | -1.85 ± 0.22
CUGGAGCAAUAUUACGUGCG | -1.44 ± 0.092 | -1.19 ± 0.12
CCAAAGCAAUAUUACGAUCU | -2.43 ± 0.14 | -2.97 ± 0.35
GUCGAGCAAUAUUACGCGAG | -0.678 ± 0.096 | -0.901 ± 0.12
GGCGAGCAAUAUUACGACAU | -0.665 ± 0.015 | -0.155 ± 0.034
GUCGAGCAAUAUUACGACGG |  | -1.72 ± 0.43
CCGGAGCAAUAUUACGGGCC |  | -2.03 ± 0.33
UGCAAGCAAUAUUACGAGUG | -1.42 ± 0.052 | -0.498 ± 0.062
GUCCAGCAAUAUUACGGGAC | -3.53 ± 0.2 | -2.94 ± 0.31
GAAGAGCAAUAUUACGGGGG | -3.04 ± 0.2 | -3.06 ± 0.29
CCCAAGCAAUAUUACGUAGU | -3.65 ± 0.2 | -1.93 ± 0.14
UACGAGCAAUAUUACGAGAC | -3.68 ± 0.26 | -2.72 ± 0.27
CGCCAGCAAUAUUACGUUAU | -3.32 ± 0.16 | -2.22 ± 0.18
CCCAAGCAAUAUUACGGUUA | -2.28 ± 0.12 | -2.38 ± 0.16
UAAGAGCAAUAUUACGGGAU | -3.55 ± 0.31 | -2.99 ± 0.28
GUUUAGCAAUAUUACGGAGU | -2.3 ± 0.13 | -1.63 ± 0.12
CUCUAGCAAUAUUACGCACU | -2.77 ± 0.31 | -3.07 ± 0.25
GUGCAGCAAUAUUACGGCUG | -4.5 ± 0.34 | -2.36 ± 0.28
UAAGAGCAAUAUUACGUUGC | -2.74 ± 0.29 | -2.32 ± 0.4
GUUUAGCAAUAUUACGCUUC |  | -1.36 ± 0.43
GGAAAGCAAUAUUACGGUGU | -2.29 ± 0.092 | -1.15 ± 0.12
UGCUAGCAAUAUUACGCGCA | -1.97 ± 0.23 | -0.803 ± 0.2
UCCUAGCAAUAUUACGGAAA | -1.98 ± 0.23 | -2.51 ± 0.29
AUUGAGCAAUAUUACGUUUA | -2.83 ± 0.19 | -2.98 ± 0.27

Sequence | self-splicing fitness (ln) (30 °C) | self-splicing fitness (ln) (37 °C)
AACAAGCAAUAUUACGCUUC | -4.57 ± 0.3 | -2.75 ± 0.26
GCUGAGCAAUAUUACGUAGU | -2.86 ± 0.16 | -1.71 ± 0.15
UGGAAGCAAUAUUACGGUCU | -1.94 ± 0.14 | 0.0438 ± 0.16
UGCCAGCAAUAUUACGGUCG | -1.14 ± 0.068 | -0.0276 ± 0.075
UCUAAGCAAUAUUACGUACG | -0.481 ± 0.11 | 0.49 ± 0.13
ACUUAGCAAUAUUACGGACC | -0.607 ± 0.15 | -0.756 ± 0.25
AGUUAGCAAUAUUACGAACG | -0.391 ± 0.088 | 0.572 ± 0.14
GUUCAGCAAUAUUACGGGAG | -0.317 ± 0.077 | -0.683 ± 0.095
CGGUAGCAAUAUUACGCUAA | -2.88 ± 0.28 | -1.85 ± 0.18
UUCCAGCAAUAUUACGGUCU | -2.54 ± 0.33 | -2.13 ± 0.3
GCGUAGCAAUAUUACGGUAU | -2.03 ± 0.077 | -0.828 ± 0.1
AGAAAGCAAUAUUACGCUCU | -3.2 ± 0.37 | -2.58 ± 0.49
UCGGAGCAAUAUUACGUUGC | -2.44 ± 0.28 | -1.78 ± 0.42
ACUCAGCAAUAUUACGCUUG | -1.83 ± 0.069 | -0.599 ± 0.083
ACCAAGCAAUAUUACGUACG | -2.52 ± 0.083 | -1.28 ± 0.092
UCCAAGCAAUAUUACGAUCU | -3.08 ± 0.26 | -2.56 ± 0.22
ACCUAGCAAUAUUACGCUCA | -1.71 ± 0.14 | -0.169 ± 0.17
GACUAGCAAUAUUACGACGC | 0.125 ± 0.1 | 0.0388 ± 0.14
AACGAGCAAUAUUACGUUAC | -3.45 ± 0.29 | -0.155 ± 0.15
CUAUAGCAAUAUUACGUAAG | -0.717 ± 0.058 | 0.183 ± 0.084
UUCGAGCAAUAUUACGCCAC |  | -1.4 ± 0.46
CGUGAGCAAUAUUACGUUUA | -3.08 ± 0.39 | 
UGAUAGCAAUAUUACGCAGU | -2.93 ± 0.44 | -2.51 ± 0.27
UGUUAGCAAUAUUACGUUAG | -0.971 ± 0.12 | -1.26 ± 0.12
